Laboratory results taken from patent US20220153847A1 (Chugai, published 2022).
Numbering of substitutions follows the chain as printed.

Columns and labels:
[1] = biological target: T1, HLA-DQ2.5/avenin 1 peptide complex on Ba/F3 cells (human); assay: FACS, Ba/F3 cells; IC17=0%, DQN0139bb//IC17=100%;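 further: flow cytometry binding of anti-HLA-DQ antibodies at 5 µg/mL, incubated 30 min at room temperature with Ba/F3 lines presenting HLA-DQ/peptide complexes; antibody tested at 5 microgram/mL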
T1 construct: whole, on cells; also called Ba/F3-HLA-DQ2.5/avenin 1
From the text: (§1) The binding of anti-HLA-DQ antibodies to Ba/F3-HLA-DQ2.5, Ba/F3-HLA-DQ2.2, Ba/F3-HLA-DQ7.5, Ba/F3-HLA-DQ8, Ba/F3-HLA-DQ5.1, Ba/F3-HLA-DQ6.3, Ba/F3-HLA-DQ7.3, Ba/F3-HLA-DR, Ba/F3-HLA-DP, Ba/F3-HLA-DQ2.5/CLIP, Ba/F3-HLA-DQ2.5/HBV, Ba/F3-HLA-DQ2.5/Salmonella, Ba/F3-HLA-DQ2.5/TPO, Ba/F3-HLA-DQ2.5/M. bovis, Ba/F3-HLA-DQ2.5/alpha 1 gliadin, Ba/F3-HLA-DQ2.5/alpha 2 gliadin, Ba/F3-HLA-DQ2.5/gamma 1 gliadin, Ba/F3-HLA-DQ2.5/gamma 2 gliadin, Ba/F3-HLA-DQ2.5/omega 1 gliadin, Ba/F3-HLA-DQ2.5/omega 2 gliadin, Ba/F3-HLA-DQ2.5/BC hordein, Ba/F3-HLA-DQ2.5/alpha 3 gliadin, Ba/F3-HLA-DQ2.5/alpha 1b gliadin, Ba/F3-HLA-DQ2.5/gamma 4b gliadin, Ba/F3-HLA-DQ2.5/avenin 1, Ba/F3-HLA-DQ2.5/avenin 2, Ba/F3-HLA-DQ2.5/avenin 3, Ba/F3-HLA-DQ2.5/hordein 1, Ba/F3-HLA-DQ2.5/hordein 2, Ba/F3-HLA-DQ2.5/secalin 1, Ba/F3-HLA-DQ2.5/secalin 2, Ba/F3-HLA-DQ2.5/14mer 1, Ba/F3-HLA-DQ2.5/33mer gliadin, Ba/F3-HLA-DQ2.5/26mer gliadin, was tested. 5 microgram/mL of each of the anti-HLA-DQ antibodies was incubated with each cell line for 30 minutes at room temperature and washed with FACS buffer (2% FBS, 2 mM EDTA in PBS).

[2] = biological target: T2, HLA-DQ2.5/avenin 2 peptide complex on Ba/F3 cells (human); assay: FACS, Ba/F3 cells; IC17=0%, DQN0139bb//IC17=100%;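 further: flow cytometry binding of anti-HLA-DQ antibodies at 5 µg/mL, incubated 30 min at room temperature with Ba/F3 lines presenting HLA-DQ/peptide complexes; antibody tested at 5 microgram/mL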
T2 construct: whole, on cells; also called Ba/F3-HLA-DQ2.5/avenin 2
From the text: as §1

[3] = biological target: T3, HLA-DQ2.5/14mer 1 peptide complex on Ba/F3 cells (human); assay: FACS, Ba/F3 cells; IC17=0%, DQN0139bb//IC17=100%;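 further: flow cytometry binding of anti-HLA-DQ antibodies at 5 µg/mL, incubated 30 min at room temperature with Ba/F3 lines presenting HLA-DQ/peptide complexes; antibody tested at 5 microgram/mL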
T3 construct: whole, on cells; also called Ba/F3-HLA-DQ2.5/14mer 1
From the text: as §1

[4] = biological target: T4, HLA-DQ2.5/alpha 1b gliadin peptide complex on Ba/F3 cells (human); assay: FACS, Ba/F3 cells; IC17=0%, DQN0139bb//IC17=100%;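 further: flow cytometry binding of anti-HLA-DQ antibodies at 5 µg/mL, incubated 30 min at room temperature with Ba/F3 lines presenting HLA-DQ/peptide complexes; antibody tested at 5 microgram/mL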
T4 construct: whole, on cells; also called Ba/F3-HLA-DQ2.5/alpha 1b gliadin; HLA-DQ2.5/a1b gliadin
From the text: as §1

[5] = biological target: T5, HLA-DQ2.5/avenin 3 peptide complex on Ba/F3 cells (human); assay: FACS, Ba/F3 cells; IC17=0%, DQN0139bb//IC17=100%
T5 construct: whole, on cells; also called Ba/F3-HLA-DQ2.5/avenin 3
From the text: as §1

[6] = biological target: T6, HLA-DQ2.5/alpha 2 gliadin peptide complex on Ba/F3 cells (human); assay: FACS, Ba/F3 cells; IC17=0%, DQN0139bb//IC17=100%
T6 construct: whole, on cells; also called Ba/F3-HLA-DQ2.5/alpha 2 gliadin; HLA-DQ2.5/a2 gliadin
From the text: as §1

[7] = biological target: T7, HLA-DQ2.5/secalin 1 peptide complex on Ba/F3 cells (human); assay: FACS, Ba/F3 cells; IC17=0%, DQN0139bb//IC17=100%
T7 construct: whole, on cells; also called Ba/F3-HLA-DQ2.5/secalin 1
From the text: as §1

[8] = biological target: T8, HLA-DQ2.5/gamma 2 gliadin peptide complex on Ba/F3 cells (human); assay: FACS, Ba/F3 cells; IC17=0%, DQN0139bb//IC17=100%
T8 construct: whole, on cells; also called Ba/F3-HLA-DQ2.5/gamma 2 gliadin; HLA-DQ2.5/g2 gliadin
From the text: as §1

[9] = biological target: T9, HLA-DQ2.5/hordein 2 peptide complex on Ba/F3 cells (human); assay: FACS, Ba/F3 cells; IC17=0%, DQN0139bb//IC17=100%
T9 construct: whole, on cells; also called Ba/F3-HLA-DQ2.5/hordein 2
From the text: as §1

[10] = biological target: T10, HLA-DQ2.5/omega 1 gliadin peptide complex on Ba/F3 cells (human); assay: FACS, Ba/F3 cells; IC17=0%, DQN0139bb//IC17=100%
T10 construct: whole, on cells; also called Ba/F3-HLA-DQ2.5/omega 1 gliadin; HLA-DQ2.5/w1 gliadin
From the text: as §1

[11] = biological target: T11, HLA-DQ2.5/CLIP peptide complex on Ba/F3 cells (human); assay: FACS, Ba/F3 cells; IC17=0%, DQN0139bb//IC17=100%
T11 construct: whole, on cells; also called Ba/F3-HLA-DQ2.5/CLIP
T11 sequence (P04233 96-124, chain 2 of 2, other chains not shown): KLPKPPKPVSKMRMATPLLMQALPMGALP
From the text: as §1

[12] = biological target: T12, HLA-DQ2.5/BC hordein peptide complex on Ba/F3 cells (human); assay: FACS, Ba/F3 cells; IC17=0%, DQN0139bb//IC17=100%
T12 construct: whole, on cells; also called Ba/F3-HLA-DQ2.5/BC hordein
From the text: as §1

[13] = biological target: T13, HLA-DQ2.5/alpha 1 gliadin peptide complex on Ba/F3 cells (human); assay: FACS, Ba/F3 cells; IC17=0%, DQN0139bb//IC17=100%
T13 construct: whole, on cells; also called Ba/F3-HLA-DQ2.5/alpha 1 gliadin; HLA-DQ2.5/a1 gliadin
From the text: as §1

[14] = biological target: T14, HLA-DQ2.5/gamma 4b gliadin peptide complex on Ba/F3 cells (human); assay: FACS, Ba/F3 cells; IC17=0%, DQN0139bb//IC17=100%
T14 construct: whole, on cells; also called Ba/F3-HLA-DQ2.5/gamma 4b gliadin; HLA-DQ2.5/g4b gliadin
From the text: as §1

[15] = biological target: T15, HLA-DQ2.5/secalin 2 peptide complex on Ba/F3 cells (human); assay: FACS, Ba/F3 cells; IC17=0%, DQN0139bb//IC17=100%
T15 construct: whole, on cells; also called Ba/F3-HLA-DQ2.5/secalin 2
From the text: as §1

[16] = biological target: T16, HLA-DQ2.5/alpha 3 gliadin peptide complex on Ba/F3 cells (human); assay: FACS, Ba/F3 cells; IC17=0%, DQN0139bb//IC17=100%
T16 construct: whole, on cells; also called Ba/F3-HLA-DQ2.5/alpha 3 gliadin; HLA-DQ2.5/a3 gliadin
From the text: as §1

[17] = biological target: T17, HLA-DQ2.5/omega 2 gliadin peptide complex on Ba/F3 cells (human); assay: FACS, Ba/F3 cells; IC17=0%, DQN0139bb//IC17=100%
T17 construct: whole, on cells; also called Ba/F3-HLA-DQ2.5/omega 2 gliadin; HLA-DQ2.5/w2 gliadin
From the text: as §1

[18] = biological target: T18, HLA-DQ2.5/hordein 1 peptide complex on Ba/F3 cells (human); assay: FACS, Ba/F3 cells; IC17=0%, DQN0139bb//IC17=100%
T18 construct: whole, on cells; also called Ba/F3-HLA-DQ2.5/hordein 1
From the text: as §1

[19] = biological target: T19, HLA-DQ2.5/gamma 1 gliadin peptide complex on Ba/F3 cells (human); assay: FACS, Ba/F3 cells; IC17=0%, DQN0139bb//IC17=100%
T19 construct: whole, on cells; also called Ba/F3-HLA-DQ2.5/gamma 1 gliadin; HLA-DQ2.5/g1 gliadin
From the text: as §1

[20] = biological target: T20, HLA-DQ2.5/26mer gliadin peptide complex on Ba/F3 cells (human); assay: FACS, Ba/F3 cells; IC17=0%, DQN0139bb//IC17=100%
T20 construct: whole, on cells; also called Ba/F3-HLA-DQ2.5/26mer gliadin
From the text: as §1

[21] = biological target: T21, HLA-DQ2.5 on HLA-DQ2.5-positive PBMC B cells (human, UniProt P01909 24-254; P01920 33-261); assay: FACS, PBMC B cells; IC17=0%, DQN0139bb//IC17=100%
T21 construct: whole, on cells; also called HLA-DQ2.5+ PBMC B cell
T21 MHC II alpha: not shown
T21 MHC II beta: not shown

B1: DQN0344xx//DQN0385ee (bispecific antibody, human IgG1, kappa)
heavy 1: QSLEESGGGLVKPGGTLTLTCTASGFSFSSSYWMCWVRQAPGKGLEWVACVYGGSDTTYYASWTKGRFTISKGSSTTVALQVTSLTAADTATYFCARDPLNYYYYGELNLWGPGTLVTVSSASTKGPSVFPLAPSSKSTSGGTAALGCLVKDYFPEPVTVSWNSGALTSGVHTFPAVLQSSGLYSLSSVVTVPSSSLGTQTYICNVNHKPSNTKVDKRVEPKSCDKTHTCPPCPAPELRRGPSVFLFPPKPKDTLMISRTPEVTCVVVDVSHEDPEVKFNWYVDGVEVHNAKTKPREEQYNSTYRVVSVLTVLHQDWLNGKEYKCKVSNKALPAPIEKTISKAKGQPREPQVYTLPPSREEMTKNQVSLTCLVKGFYPSDIAVEWESNGQPENNYKTTPPYLDSDGSFFLYSKLTVDKSRWQQGNVFSCSVMHEALHNHYTQESLSLSP
light 1: AVVLTQTASPVSAAVGGTVTIRCQATENIYSGLAWYQQKPGQPPKVLIYYVSTLASGVPSRFKGSGSGTEYTLTISGVQCDDAATYYCQTYHDISNVTFGGGTKVEIKRTVAAPSVFIFPPSDEQLKSGTASVVCLLNNFYPREAKVQWKVDNALQSGNSQESVTEQDSKDCTYSLSSTLTLSKADYEKHKVYACEVTHQGLSSPVTKSFNRGEC
heavy 2: QEQLEESGGDLVKPGASLTLTCTASGFSFYSSYWICWVRQAPGKGLEWIACIDTGSGSIDYASWVNGRFTISKTSSTTVTLQMTSLTVADTATYFCARDIGIDYNFWGPGTLVTVSSASTKGPSVFPLAPSSKSTSGGTAALGCLVKDYFPEPVTVSWNSGALTSGVHTFPAVLQSSGLYSLSSVVTVPSSSLGTQTYICNVNHKPSNTKVDKRVEPKSCDKTHTCPPCPAPELRRGPSVFLFPPKPKDTLMISRTPEVTCVVVDVSHEDPEVKFNWYVDGVEVHNAKTKPREEQYNSTYRVVSVLTVLHQDWLNGKEYKCKVSNKALPAPIEKTISKAKGQPREPQVYTLPPSRKEMTKNQVSLTCLVKGFYPSDIAVEWESNGQPENNYKTTPPYLDSDGSFFLYSKLTVDKSRWQQGNVFSCSVMHEALHNHYTQKSLSLSP
light 2: AFELTQTPSFVEAAVGGTVTIKCQATQSISSYLNWYQQKPGQPPKLLIYYASTLASGVPSRFKGSGSGTEFSLTISGVECADAATYYCHYGISYVSFGGGTKVEIKRTVAAPSVFIFPPSDEQLKSGTASVVCLLNNFYPREAKVQWKVDNALQSGNSQESVTEQDSKDCTYSLSSTLTLSKADYEKHKVYACEVTHQGLSSPVTKSFNRGEC
B1 was tested, and the “% MFI” value [1] was 29.1%, the “% MFI” value [2] was 26.6% and the “% MFI” value [3] was 27.6%. For the same binder, the “% MFI” value [4] was 61.9%, the “% MFI” value [5] was 15.6% and the “% MFI” value [6] was 52.3%. The “% MFI” value [7] was 33.6%, the “% MFI” value [8] was 4.6% and the “% MFI” value [9] was 92.2%. The “% MFI” value [10] was 40%, the “% MFI” value [11] was 1.8% and the “% MFI” value [12] was 63.5%. For the same binder, the “% MFI” value [13] was 58.1%, the “% MFI” value [14] was 31.1% and the “% MFI” value [15] was 43.5%. For the same binder, the “% MFI” value [16] was 36.4%, the “% MFI” value [17] was 71.5% and the “% MFI” value [18] was 28%. For the same binder, the “% MFI” value [19] was 29.4%, the “% MFI” value [20] was 61.8% and the “% MFI” value [21] was 0.4%.

B2: DQN0385ee//IC17 (bispecific antibody, human IgG1, kappa)
heavy 1: B1 heavy 2 with K356E, K439E
light 1: B1 light 2
heavy 2: QVQLQQSGPQLVRPGASVKISCKASGYSFTSYWMHWVNQRPGQGLEWIGMIDPSYSETRLNQKFKDKATLTVDKSSSTAYMQLSSPTSEDSAVYYCALYGNYFDYWGQGTTLTVSSASTKGPSVFPLAPSSKSTSGGTAALGCLVKDYFPEPVTVSWNSGALTSGVHTFPAVLQSSGLYSLSSVVTVPSSSLGTQTYICNVNHKPSNTKVDKRVEPKSCDKTHTCPPCPAPELRRGPSVFLFPPKPKDTLMISRTPEVTCVVVDVSHEDPEVKFNWYVDGVEVHNAKTKPREEQYNSTYRVVSVLTVLHQDWLNGKEYKCKVSNKALPAPIEKTISKAKGQPREPQVYTLPPSRKEMTKNQVSLTCLVKGFYPSDIAVEWESNGQPENNYKTTPPYLDSDGSFFLYSKLTVDKSRWQQGNVFSCSVMHEALHNHYTQKSLSLSP
light 2: DIQMTQSSSSFSVSLGDRVTITCKASEDIYNRLAWYQQKPGNAPRLLISGATSLETGVPSRFSGSGSGKDYTLSITSLQTEDVATYYCQQYWSTPYTFGGGTKLEVKRTVAAPSVFIFPPSDEQLKSGTASVVCLLNNFYPREAKVQWKVDNALQSGNSQESVTEQDSKDSTYSLSSTLTLSKADYEKHKVYACEVTHQGLSSPVTKSFNRGEC
For B2, the “% MFI” value [1] was 4%, the “% MFI” value [2] was 8.3% and the “% MFI” value [3] was 23.3%. For the same binder, the “% MFI” value [4] was 19.2%, the “% MFI” value [5] was 0.2% and the “% MFI” value [6] was 85.6%. The “% MFI” value [7] was 11.8%, the “% MFI” value [8] was 3.4% and the “% MFI” value [9] was 98.3%. For the same binder, the “% MFI” value [10] was 17.2%, the “% MFI” value [11] was 1.3% and the “% MFI” value [12] was 68.1%. For the same binder, the “% MFI” value [13] was 6%, the “% MFI” value [14] was 32.4% and the “% MFI” value [15] was 34.4%. The “% MFI” value [16] was 20.9%, the “% MFI” value [17] was 75.2% and the “% MFI” value [18] was 24.7%. For the same binder, the “% MFI” value [19] was 26%, the “% MFI” value [20] was 70.5% and the “% MFI” value [21] was 0.3%.
